Data published in PMC10906865.

Molecular target: Human Herpes Simplex Virus glycoprotein D (Human Herpes Simplex Virus) (UniProt Q69091)
Test: differential scanning calorimetry; peak height of the DSC thermogram of the pure protein compared with a DNA hairpin standard curve; ratio of the calorimetric concentration to the UV-Vis or dry-weight concentration read as stoichiometry; 150 mM NaCl, 10 mM potassium phosphate, 15 mM sodium citrate, pH 7.4; heating about 1°C/min

Human Herpes Simplex Virus glycoprotein D (from UniProt Q69091 26-394) (natural protein)
factor of the transition heat capacity over the average of the other molecules: 2.2 fold | percent of dimers in the sample: 35% | percent of trimers in the sample: 65% | stoichiometry N: 2.65
